These results are taken from publication PMC6738647, “A nanobody targeting the translocated intimin receptor inhibits the attachment of enterohemorrhagic E. coli to human colonic mucosa” (PLoS Pathogens, 2019).

The target in experiment [1] is T1, Int280 of EHEC (C-terminal receptor-binding domain of intimin), His-tagged (enterohemorrhagic E. coli (EHEC) O157:H7, UniProt P43261 655-934).
T1 construct: also called Int280_(EHEC)
T1 sequence: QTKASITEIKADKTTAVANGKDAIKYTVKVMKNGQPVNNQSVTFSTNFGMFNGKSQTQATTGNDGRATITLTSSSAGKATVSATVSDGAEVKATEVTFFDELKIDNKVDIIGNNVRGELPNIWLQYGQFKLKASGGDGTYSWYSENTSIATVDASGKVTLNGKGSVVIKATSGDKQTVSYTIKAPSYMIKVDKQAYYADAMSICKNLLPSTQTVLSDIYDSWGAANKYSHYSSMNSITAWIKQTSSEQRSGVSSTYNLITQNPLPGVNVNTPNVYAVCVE
Briefly: SPR; BiaCore3000; biotinylated TirM_(EHEC) immobilised on a Streptavidin SA chip at 150 RU; Int280 as analyte at 30 ul/min in HEPES-buffer; 1:1 Langmuir model; KD from koff/kon. The settings on record: both partners purified. A general note: In SPR one partner is held on a chip, and binding of the other changes the refractive index at the surface.

A further experiment addresses T2, Tir TirM (Escherichia coli, UniProt P0DJ92).
T2 chain: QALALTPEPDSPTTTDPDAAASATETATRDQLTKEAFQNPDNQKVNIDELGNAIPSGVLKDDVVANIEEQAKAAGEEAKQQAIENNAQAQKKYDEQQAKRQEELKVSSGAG
Briefly: SPR.

B1: Biotinylated TirM of EHEC, His-tagged (domain or fragment)
chain: T2 chain
modifications: biotin (Biotinamidocaproate N-hydroxysuccinimide ester)
notes: also called biotinylated TirM_(EHEC)
As for B1, in experiment [1], the affinity, expressed as Kd, was 48.1 nM; the koff (in general, the rate constant with which the complex falls apart) was 0.0375 s⁻¹; the kon (usually the rate constant with which the complex forms) came to 785000 M⁻¹ s⁻¹.

B2: Intimin Int280 Int280 (protein)
chain: T1 sequence
Regarding B2, the Kd (commonly the equilibrium constant for the complex coming apart) in the experiment with Tir TirM was roughly 40 nM.
